Data from patent publication US20210115426A1 (BOARD OF REGENTS OF THE UNIVERSITY OF OKLAHOMA, published 2021).
Blank lines part the entries; values can stand above or below the binder they belong to. Non-standard residues stand in square brackets, D forms with d. No end group written: not given here. AEEA = NCCOCCOCC(=O)O

Legend:
amyloid β1-42 (Aβ1-42) [1] = target: T1, amyloid β1-42 (Aβ1-42) (UniProt P05067 672-713); assay: ELISA, peptide coated at 5 µg/ml, 150 nM Aβ1-42 added, anti-Aβ antibody, A492 (FIG. 3)
T1 construct: domain: Aβ1-42; Added in solution at 150 nM in the ELISA; Aβ1-42 is a fragment of it; also called amyloid beta; the 42-amino acid form of Aβ
Experimental: (§1) BSA was from Sigma Aldrich. […] Plate coating was done at room temperature for 2 hours with shaking and then at 4° C. overnight. Plates were washed three times in PBST (PBS+0.05% tween), then blocked with 3% BSA in PBST for 1 hour at room temperature with shaking. […] Plates were then washed 4 times with PBST and monoclonal mouse anti-amyloid precursor protein/amyloid beta antibody, purchased from Cell Signaling Technology was added at a 1:500 dilution in 1% BSA in PBST and incubated for 1 hour at room temperature with shaking. Plates were washed 4× in PBST and donkey anti mouse HRP-conjugated secondary antibody from Jackson ImmunoResearch Laboratories was added at 1:10,000 in PBST and incubated 1 hour at room temperature with shaking, then washed 4 times in PBST. […] Sulfuric acid (5N) was added to each well to stop the reaction, and the absorbance at 492 nm was read on a Biotek Synergy II plate reader.

amyloid β1-42 (Aβ1-42) [2] = target: T1, amyloid β1-42 (Aβ1-42); assay: cell-based or functional assay
amyloid β1-42 (Aβ1-42) [3] = target: T1, amyloid β1-42 (Aβ1-42); assay: ELISA, peptide coated at 5 µg/ml, 150 nM Aβ1-42 added, anti-Aβ antibody, A492 (FIG. 2)
Experimental: as §1

amyloid β1-42 (Aβ1-42) [4] = target: T1, amyloid β1-42 (Aβ1-42); assay: ELISA, peptide coated, Aβ1-42 added (FIG. 21)
Experimental: as §1

amyloid β1-42 (Aβ1-42) [5] = target: T1, amyloid β1-42 (Aβ1-42); assay: ELISA, peptide coated, Aβ1-42 added, anti-Aβ antibody, absorbance at 492 nm (FIG. 21)
Experimental: as §1

T1 sequence (P05067 672-713 limits assumed): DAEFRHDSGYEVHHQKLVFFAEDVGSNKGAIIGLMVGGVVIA

B1: 5RMP-modified CAP37-derived peptide 120-146 QR (peptide)
peptide: [AEEA][AEEA]RRRRGTRCQVAGWGSQRSGGRLSRFPRFVNVR
binding result (amyloid β1-42 (Aβ1-42) [1]): binds

B2: CAP37-derived peptide 120-146 WR 5RMP (peptide)
peptide: [AEEA][AEEA]RRRRGTRCQVAGWGSWRSGGRLSRFPRFVNVR
IC50 of inhibition of Aβ1-42 fibrillation (Thioflavin T fluorescence) (amyloid β1-42 (Aβ1-42) [2]): ~1 µM
molar ratio peptide/Aβ1-42 at the IC50 of fibrillation (amyloid β1-42 (Aβ1-42) [2]): ~0.1 molar ratio

B3: CAP37-derived peptide 120-146 QR (wild-type) (peptide)
peptide: GTRCQVAGWGSQRSGGRLSRFPRFVNV
binding result (amyloid β1-42 (Aβ1-42) [3]): binds

B4: CAP37-derived peptide 120-146 WR (mutant) (peptide)
peptide: GTRCQVAGWGSWRSGGRLSRFPRFVNV
IC50 of inhibition of Aβ1-42 fibrillation (Thioflavin T fluorescence) (amyloid β1-42 (Aβ1-42) [2]): ~1 µM
molar ratio peptide/Aβ1-42 at the IC50 of fibrillation (amyloid β1-42 (Aβ1-42) [2]): ~0.1 molar ratio

B5: 5RMP-modified CAP37-derived peptide 20-44 CC (peptide)
peptide: [AEEA][AEEA]RRRRNQGRHFCGGALIHARFVMTAASCFQR
modifications: cysteine pairing not given here
notes: also called 20-44 CC 5RMP
binding result (amyloid β1-42 (Aβ1-42) [1]): binds

B6: CG-derived mutant peptide CG119-144 E141PR (peptide)
peptide: GTLCTVAGWGRVSMRRGTDTLRPRVQL
binding result (amyloid β1-42 (Aβ1-42) [4]): binds

B7: CG-derived peptide CG119-144 (wild-type) (peptide)
peptide: GTLCTVAGWGRVSMRRGTDTLREVQL
binding result (amyloid β1-42 (Aβ1-42) [4]): binds

B8: CG-derived mutant peptide CG119-144 D137R (peptide)
peptide: GTLCTVAGWGRVSMRRGTRTLREVQL
IC50 of inhibition of Aβ1-42 fibrillation (Thioflavin T fluorescence) (amyloid β1-42 (Aβ1-42) [2]): 3.1 µM
molar ratio peptide/Aβ1-42 at the IC50 of fibrillation (amyloid β1-42 (Aβ1-42) [2]): 0.33 molar ratio

Results, then the binder that gave them:

binding result (amyloid β1-42 (Aβ1-42) [3]): binds
B9: CAP37-derived peptide 20-44 CC (wild-type) (peptide)
peptide: NQGRHFCGGALIHARFVMTAASCFQ
notes: also called CAP3720-44

binding result (amyloid β1-42 (Aβ1-42) [5]): no binding
B10: CG-derived mutant peptide CG119-144 ΔR129V130 (peptide)
peptide: GTLCTVAGWGSMRRGTDTLREVQL

IC50 of inhibition of Aβ1-42 fibrillation (Thioflavin T fluorescence) (amyloid β1-42 (Aβ1-42) [2]): 0.0038 µM
fold increase of the fibrillation IC50 in the presence of chymostatin (amyloid β1-42 (Aβ1-42) [2]): 17 fold
molar ratio CG/Aβ1-42 at the IC50 of fibrillation (amyloid β1-42 (Aβ1-42) [2]): 0.00038 molar ratio
B11: cathepsin G (CG), full-length (enzyme, human, UniProt P08311 21-244, looked up)
chain: IIGGRESRPHSRPYMAYLQIQSPAGQSRCGGFLVREDFVLTAAHCWGSNINVTLGAHNIQRRENTQQHITARRAIRHPQYNQRTIQNDIMLLQLSRRVRRNRNVNPVALPRAQEGLRPGTLCTVAGWGRVSMRRGTDTLREVQLRVQRDRQCLRIFGSYDPRRQICVGDRRERKAAFKGDSGGPLLCNNVAHGIVSYGKSSGVPPEVFTRVSSFLPWIRTTMRS

IC50 of inhibition of Aβ1-42 fibrillation (Thioflavin T fluorescence) (amyloid β1-42 (Aβ1-42) [2]): 0.876 µM
fold increase of the fibrillation IC50 in the presence of PMSF (amyloid β1-42 (Aβ1-42) [2]): 3.5 fold
molar ratio CAP37/Aβ1-42 at the IC50 of fibrillation (amyloid β1-42 (Aβ1-42) [2]): 0.091 molar ratio
B12: cationic antimicrobial protein of 37 kDa (CAP37), full-length (enzyme, human, UniProt P20160 27-248, looked up)
chain: IVGGRKARPRQFPFLASIQNQGRHFCGGALIHARFVMTAASCFQSQNPGVSTVVLGAYDLRRRERQSRQTFSISSMSENGYDPQQNLNDLMLLQLDREANLTSSVTILPLPLQNATVEAGTRCQVAGWGSQRSGGRLSRFPRFVNVTVTPEDQCRPNNVCTGVLTRRGGICNGDGGTPLVCEGLAHGVASFSLGPCGRGPDFFTRVALFRDWIDGVLNNPGP
